{"source": "patent US20230146533A1", "about": "“KERATIN BD-10, PREPARATION METHOD THEREFOR AND PHARMACEUTICAL COMPOSITION AND USE THEREOF” (INSTITUTE OF MATERIA MEDICA, CHINESE ACADEMY OF MEDICAL …, priority 2019, published 2023)", "molecules": {"B1": {"name": "BD-10: recombinant keratin with amino acid sequence SEQ ID NO:1, expressed in E. coli inclusion bodies, band around 55 kD (protein, listed as Bos taurus)", "chain": "MSCRSYRISPGYSVTRTFSSCSAVAPKTGSRCCITAAPYRGVSCYRGLTGFGSRSVSALGSCGPRIAVGGFRAGSCNRSFGYRSGGVGGLSPPCITTVSVNESLLTPLNLEIDPNAQCVKHEEKEQIKNLNSRFAAFIDKVRFLEQQNKLLETKWQFYQNQRCCESNLEPLFNGYIETLRREAEHVEADGGRLASELNHVQEVLEGYKKKYEEEVALRATAENEFVVLKKDVDCAYLRKSDLEANVEALVEESNFLKRLYDEEIQILNAHISDTSVIVKMDNSRDLNMDCVVAEIKAQYDDIASRSRAEAESWYRNKCEEMKATVIRHGETLRRTKEEINELNRIIQRLTAEIENAKCQRTKLEAAVAEAEQQGEAALNDARCKLAGLEEALQKAKQDMACLLKEYQEVMNSKLGLDIEIATYRRLLEGEEQRLCEGVGSVNVCVSSSRGGVTCGGLTYSTTAGRQIASGPVATGGSITVLAPDSCVPCQPRASSFSCGSSRSVRFA"}}, "key": {"[1]": {"system": "lipopolysaccharide (LPS) induced fever in SD rats", "assay": "Lipopolysaccharide (LPS) induced fever model in SD rats", "type": "in vivo", "details": "for Body temperature 2 hours after modeling / Body temperature 4 hours after modeling / Body temperature 6 hours after modeling / Body temperature 8 hours after modeling: LPS 20 μg/kg i.p., SD rats", "description": "Animals: 230-260 grams of male SD rats; Drugs: lipopolysaccharide (LPS, SIGMA L-2880), aspirin (SIGMA A2093), protein BD-10; Instruments: electronic balance (SARTORIUS BP121S type), electronic clinical thermometer (CITIZEN CT-513W type).\nMethod: the method of intraperitoneal injection of Lipopolysaccharide to replicate rat fever model.\n(§1) Preparation of experimental animals: After the experimental animals adapt to the experimental environment (temperature 22° C.±2° C., relative humidity 50%±2%) for 1 day. Pre-adaptation to measure rectal temperature at 8:00 and 15:00, rats were fasted and water was taken freely 12 h before experiment, and let the animal to empty its feces before measuring the rectal temperature. Apply petroleum jelly to the electronic thermometer probe before each temperature measurement. Insert the rat rectum 2 cm (can be marked at 2 cm to ensure that the depth of each insertion is consistent), and record the body temperature after the reading is stable.\nIntraperitoneal injection of lipopolysaccharide to replicate rat fever model: The body temperature of the rats was measured before modeling. Qualified rats with a body temperature of 36.2-37.3° C. were selected and randomly divided into groups with 8 rats in each group. After oral administration of aspirin and different doses of protein BD-10, lipopolysaccharide (20 μg/kg, 2 ml/kg) was injected intraperitoneally immediately, and the normal control group was injected intraperitoneally with an equal volume of normal saline. The body temperatures of the rats were monitored after 2 hours for a total of 8 hours.\n(§2) According to the body temperature measured at each time point on the day of the experiment, calculate the mean, standard deviation and standard error of the body temperature of each group of rats. The data of each group was compared with TTEST, and P<0.05 was considered as a significant difference."}, "[2]": {"system": "yeast-induced fever model in rats", "assay": "Yeast-induced fever model in SD rats", "type": "in vivo", "details": "for Body temperature 2 hours after modeling / Body temperature 4 hours after modeling / Body temperature 6 hours after modeling / Body temperature 8 hours after modeling: 20% yeast suspension 10 ml/kg s.c., SD rats", "description": "Animals: 230-260 grams of male SD rats; Medicines: yeast (OXOID LP0021), aspirin (SIGMA A2093), protein BD-10; Instruments: electronic balance (SARTORIUS BP121S type), electronic clinical thermometer (CITIZEN CT-513W type). Experiment grouping: • Normal control group; • Model group: yeast fever model; • Positive control group: Aspirin 300 mg/kg group; • Protein BD-10, 10 mg/kg group, 50 mg/kg group.\nas §1\nSubcutaneous injection of dry yeast to replicate rat fever model: The body temperature of the rats was measured before modeling. Qualified rats with a body temperature of 36.2-37.3° C. were selected and randomly divided into groups with 8 rats in each group. After oral administration of aspirin and different doses of protein BD-10, 20% yeast suspension (10 ml/kg) was injected subcutaneously immediately, and the normal control group was injected intraperitoneally with an equal volume of normal saline. The body temperatures of the rats were monitored after 2 hours for a total of 8 hours.\nas §2"}, "[3]": {"system": "PLO-induced epilepsy in mice", "assay": "Pilocarpine (PLO) induced convulsive epilepsy in mice", "type": "in vivo, ICR mice", "design": "mortality rate: unit not given here", "details": "for Grade IV seizure rate / mortality rate / Grade II seizure incubation period / Grade III seizure incubation period / Grade IV seizure incubation period / Cases of deaths / Cases of Grade IV: PLO 225 mg/kg i.p.; for Grade IV seizure rate / mortality rate: 10 mice; for Grade II seizure incubation period / Grade III seizure incubation period / Grade IV seizure incubation period: mean ± SEM; for Grade IV seizure incubation period: mice not reaching Grade IV recorded as maximum 1800 seconds; for Cases of deaths / Cases of Grade IV: of 10 mice; for Cases of Grade IV: 30 minutes observation", "description": "Animals: male ICR mice; Drugs: Pilocarpine HCl (PLO, pilocarpine, pilocarpine hydrochloride), Diazepam (diazepam tablets), protein BD-10.\nExperiment grouping: • Model group: • Diazepam 2 mg/kg group; • Protein BD-10, 50 mg/kg group, 200 mg/kg group.\nThe drug was administered once in the afternoon the day before modeling, PLO-225 mg/kg (modeling agent) was injected intraperitoneally 1 hour after the test drug was administered intragastrically on the day of modeling. And positive drug can be administered once 20 minutes before modeling. Observe for 30 minutes after PLO injection.\nObservation indicators: (1)Seizure situation: the time of seizures from Grade II to Grade IV; (2)the time to death.\nSeizure grade: Refer to Racine grading standard: Grade 0: No response; Grade I: manifested as twitching of facial muscles or the corners of the mouth; Grade II: can nod; Grade III: twitching of one limb; Grade IV: rigidity or body twitching; Grade V: generalized epilepsy (generalized tonic seizures).\nCount the number of Grade IV seizures and deaths in each group of mice in the experiment; Grade II, III and IV incubation period. […] Chi-square test was used for statistics of the number of cases. The mean value and standard error of the incubation period were calculated, and TTEST was used to compare the model group with other groups. P<0.05 was considered as a significant difference."}, "[4]": {"system": "acetic acid writhing of ICR mice", "assay": "Acetic acid writhing test in ICR mice", "type": "in vivo", "details": "for Frequency of writhing / Writhing incubation period: observed within 15 minutes", "description": "Animals: male ICR mice; Drugs and reagents: aspirin, physiological saline, glacial acetic acid, protein BD-10. Experiment grouping: • Model group; • Aspirin 300 mg/kg group; • Protein BD-10, 50 mg/kg group, 200 mg/kg group.\nOne day after the experimental animals adapt to the environment, Aspirin 300 mg/kg, protein BD-10 50 mg/kg, 200 mg/kg were given orally one hour in advance, and the administration volume was 10 ml/kg; Then, 0.6% acetic acid solution was injected intraperitoneally, and the incubation period (seconds) and frequency of writhing in the animal was observed within 15 minutes.\nCalculate the mean and standard error of the data in each group. Compared with the model group by TTEST, P<0.05 was considered as statistically different."}, "[5]": {"details": "BD-10 50 mg/kg oral one hour before 0.6% acetic acid i.p."}, "[6]": {"details": "BD-10 200 mg/kg oral one hour before 0.6% acetic acid i.p."}}}
{"molecule": "B1", "values": [{"measurement": "Effect on body temperature of model rats (in words)", "setting": "[1]; BD-10 10 mg/kg dose group, 2 hours after modeling, vs model group P<0.05", "result": "can significantly reduce the body temperature"}, {"measurement": "Body temperature 2 hours after modeling", "setting": "[1]; BD-10 10 mg/kg oral", "result": "37.3 ± 0.1", "unit": "°C"}, {"measurement": "Body temperature 4 hours after modeling", "setting": "[1]; BD-10 10 mg/kg oral", "result": "37.8 ± 0.1", "unit": "°C"}, {"measurement": "Body temperature 6 hours after modeling", "setting": "[1]; BD-10 10 mg/kg oral", "result": "37.8 ± 0.1", "unit": "°C"}, {"measurement": "Body temperature 8 hours after modeling", "setting": "[1]; BD-10 10 mg/kg oral", "result": "37.6 ± 0.1", "unit": "°C"}, {"measurement": "Body temperature 2 hours after modeling", "setting": "[1]; BD-10 50 mg/kg oral", "result": "37.3 ± 0.2", "unit": "°C"}, {"measurement": "Body temperature 4 hours after modeling", "setting": "[1]; BD-10 50 mg/kg oral", "result": "37.7 ± 0.2", "unit": "°C"}, {"measurement": "Body temperature 6 hours after modeling", "setting": "[1]; BD-10 50 mg/kg oral", "result": "37.9 ± 0.2", "unit": "°C"}, {"measurement": "Body temperature 8 hours after modeling", "setting": "[1]; BD-10 50 mg/kg oral", "result": "37.6 ± 0.1", "unit": "°C"}, {"measurement": "Effect on body temperature rise (in words, summary)", "setting": "[1]; BD-10, dose not stated, 2 hours after modeling", "result": "has a significant effect of reducing body temperature rise"}, {"measurement": "Body temperature 2 hours after modeling", "setting": "[2]; BD-10 10 mg/kg oral", "result": "36.8 ± 0.05", "unit": "°C"}, {"measurement": "Body temperature 4 hours after modeling", "setting": "[2]; BD-10 10 mg/kg oral", "result": "37.2 ± 0.1", "unit": "°C"}, {"measurement": "Body temperature 6 hours after modeling", "setting": "[2]; BD-10 10 mg/kg oral", "result": "37.4 ± 0.1", "unit": "°C"}, {"measurement": "Body temperature 8 hours after modeling", "setting": "[2]; BD-10 10 mg/kg oral", "result": "37.5 ± 0.1", "unit": "°C"}, {"measurement": "Body temperature 2 hours after modeling", "setting": "[2]; BD-10 50 mg/kg oral", "result": "37.0 ± 0.1", "unit": "°C"}, {"measurement": "Body temperature 4 hours after modeling", "setting": "[2]; BD-10 50 mg/kg oral", "result": "37.4 ± 0.04", "unit": "°C"}, {"measurement": "Body temperature 6 hours after modeling", "setting": "[2]; BD-10 50 mg/kg oral", "result": "37.4 ± 0.01", "unit": "°C"}, {"measurement": "Body temperature 8 hours after modeling", "setting": "[2]; BD-10 50 mg/kg oral", "result": "37.4 ± 0.09", "unit": "°C"}, {"measurement": "Effect on increase in body temperature (in words, summary)", "setting": "[2]; BD-10, dose not stated, 2, 4, 6 and 8 hours after modeling", "result": "can significantly inhibit the increase in body temperature"}, {"measurement": "Effect on body temperature of model rats (in words)", "setting": "[2]; different doses of BD-10 (10, 50 mg/kg), most time points after modeling, vs model group P<0.05", "result": "can inhibit the increase in body temperature of model rats to varying degrees"}, {"measurement": "Incubation period of epilepsy Grade III, comparison with model group (in words)", "setting": "[3]; BD-10 50 mg/kg dose group, PLO model", "result": "statistically different from the model group"}, {"measurement": "Grade IV seizure rate", "setting": "[3]; BD-10 50 mg/kg intragastric", "result": 90, "unit": "%"}, {"measurement": "mortality rate", "setting": "[3]; BD-10 50 mg/kg intragastric", "result": 0}, {"measurement": "Grade II seizure incubation period", "setting": "[3]; BD-10 50 mg/kg intragastric", "result": "93 ± 4", "unit": "s"}, {"measurement": "Grade III seizure incubation period", "setting": "[3]; BD-10 50 mg/kg intragastric", "result": "166 ± 8", "unit": "s"}, {"measurement": "Grade IV seizure incubation period", "setting": "[3]; BD-10 50 mg/kg intragastric", "result": "871 ± 144", "unit": "s"}, {"measurement": "Cases of deaths", "setting": "[3]; BD-10 50 mg/kg intragastric", "result": 0}, {"measurement": "Cases of Grade IV", "setting": "[3]; BD-10 50 mg/kg intragastric", "result": 9}, {"measurement": "Grade IV seizure rate", "setting": "[3]; BD-10 200 mg/kg intragastric", "result": 70, "unit": "%"}, {"measurement": "mortality rate", "setting": "[3]; BD-10 200 mg/kg intragastric", "result": 0}, {"measurement": "Grade II seizure incubation period", "setting": "[3]; BD-10 200 mg/kg intragastric", "result": "90 ± 6", "unit": "s"}, {"measurement": "Grade III seizure incubation period", "setting": "[3]; BD-10 200 mg/kg intragastric", "result": "151 ± 7", "unit": "s"}, {"measurement": "Grade IV seizure incubation period", "setting": "[3]; BD-10 200 mg/kg intragastric", "result": "918 ± 198", "unit": "s"}, {"measurement": "Cases of deaths", "setting": "[3]; BD-10 200 mg/kg intragastric", "result": 0}, {"measurement": "Cases of Grade IV", "setting": "[3]; BD-10 200 mg/kg intragastric", "result": 7}, {"measurement": "Effect on incubation period of Grade III epilepsy (in words, summary)", "setting": "[3]; BD-10, dose not stated, PLO model", "result": "can significantly prolong the incubation period of Grade III epilepsy"}, {"measurement": "Effect on writhing (in words)", "setting": "[4]; BD-10 50 mg/kg and 200 mg/kg dose groups, vs model group P<0.05", "result": "can significantly reduce the number of writhing mice"}, {"measurement": "Frequency of writhing", "setting": "[4]; [5]", "result": "22.7 ± 3.9", "unit": "times"}, {"measurement": "Writhing incubation period", "setting": "[4]; [5]", "result": "237.4 ± 44.8", "unit": "s"}, {"measurement": "Frequency of writhing", "setting": "[4]; [6]", "result": "19.8 ± 3.7", "unit": "times"}, {"measurement": "Writhing incubation period", "setting": "[4]; [6]", "result": "251.2 ± 43.3", "unit": "s"}, {"measurement": "Effect on number of writhing times (in words, summary)", "setting": "[4]; BD-10, dose not stated", "result": "can significantly reduce the number of writhing times"}]}
